What all share (assay): ITC; MicroCal iTC200, 25 °C; proteins 0.25 mmol/L and peptides 3 mmol/L, dialyzed against buffer B (20 mmol/L Tris-HCl, 200 mmol/L NaCl, 1 mmol/L EDTA, pH 8.0); single binding site model
What all share (conditions): both partners purified
For orientation: Isothermal titration calorimetry measures the heat released or taken up as one component is titrated into another.

The target in experiment [1] is LC3B T50A (human, UniProt Q9GZQ8 1-120, T50A).
Experiment [2] addresses LC3B D48A (human, UniProt Q9GZQ8 1-120, D48A).
The target in experiment [3] is LC3B V46A (human, UniProt Q9GZQ8 1-120, V46A).
Experiment [4] addresses microtubule-associated protein light chain 3 beta (LC3B), wild type, full-length 1-125 (human, UniProt Q9GZQ8 1-120).
The target in experiment [5] is LC3B R11A (human, UniProt Q9GZQ8 1-120, R11A).
The target in experiment [6] is LC3B R10A (human, UniProt Q9GZQ8 1-120, R10A).
Experiment [7] has as its target LC3B L47A (human, UniProt Q9GZQ8 1-120, L47A).
Experiment [8] concerns the target LC3B F7A (human, UniProt Q9GZQ8 1-120, F7A).
Experiment [9] deals with LC3B K49A (human, UniProt Q9GZQ8 1-120, K49A).
Experiment [10] addresses LC3B L53A (human, UniProt Q9GZQ8 1-120, L53A).
In experiment [11] the target is LC3B R70E (human, UniProt Q9GZQ8 1-120, R70E).
For experiment [12], the target named is LC3B K49E (human, UniProt Q9GZQ8 1-120, K49E).
Experiment [13] deals with LC3B R70A (human, UniProt Q9GZQ8 1-120, R70A).
Experiment [14] concerns the target LC3B K49R (human, UniProt Q9GZQ8 1-120, K49R).
Experiment [15] deals with LC3B I23A (human, UniProt Q9GZQ8 1-120, I23A).
The target in experiment [16] is LC3B K51A (human, UniProt Q9GZQ8 1-120, K51A).
The target in experiment [17] is LC3B D19A (human, UniProt Q9GZQ8 1-120, D19A).
The target in experiment [18] is LC3B R10E (human, UniProt Q9GZQ8 1-120, R10E).
In experiment [19] the target is LC3B R11E (human, UniProt Q9GZQ8 1-120, R11E).

Non-standard residues stand in square brackets, D forms with d. No end group written: not given here. pY = N[C@@H](Cc1ccc(OP(=O)(O)O)cc1)C(=O)O; pS = N[C@@H](COP(=O)(O)O)C(=O)O

One may read the Kd as the concentration at which binding is half-saturated. High values mean a looser complex, low ones a tighter complex. As usually defined, the stoichiometry N is the number of molecules, sites or subunits per partner or assembly.

B1: FUNDC1 LIR peptide 10-25, unphosphorylated (peptide)
peptide: DYESDDDSYEVLDLTE
notes: FUNDC1 (Fun14 domain-containing protein 1), LIR and flanking residues 10-25; also called unphosphorylated FUNDC1 peptide; FUNDC1 peptide; source: synthetic peptide (GL Biochem, Shanghai)
In the case of B1, the Kd in [1] was determined as 2.81 ± 0.31 µM; in [2], 1.17 ± 0.15 µM; in [3], 1.59 ± 0.19 µM; in experiment [4] it was 1.78 ± 0.16 µM; in experiment [5], 5.62 ± 0.25 µM; in experiment [6] it was 11.4 ± 1.14 µM. In addition, the Kd in experiment [7] was 3.07 ± 0.64 µM; in experiment [8] it was 3.52 ± 0.23 µM. For the same molecule, the dH in [1] was -2.65 kcal/mol; in experiment [2] it was -3.03 kcal/mol; in experiment [3], -4.86 kcal/mol; in [4] it was -3.15 kcal/mol; in experiment [5], -4.51 kcal/mol; in experiment [6], -3.56 kcal/mol. For the same molecule, the dH was -2.06 kcal/mol in experiment [7] and -3.08 kcal/mol in experiment [8]. Besides, the “stoichiometry N” value in experiment [1] worked out at 1.02; in [2] it was 0.98; in [3] it was 1.02; in [4], 1.02; in experiment [5], 1.12; in experiment [6] it was 1.01. Besides, the figures for the “stoichiometry N” value in experiment [7] and in experiment [8] were 1.19 and 1.17, respectively.

B2: FUNDC1 LIR peptide 10-25 phosphorylated at Ser17 (peptide)
peptide: DYESDDD[pS]YEVLDLTE
notes: also called FUNDC1 pS17; FUNDC1 pS17 peptide; source: synthetic peptide (GL Biochem, Shanghai)
In the case of B2, the equilibrium dissociation constant (Kd) in experiment [9] came to 3.56 ± 0.21 µM; in experiment [10], 0.97 ± 0.14 µM; in [11] it was 61 ± 3.44 µM; in experiment [12], 120 ± 5.72 µM; in [13] it was 15.8 ± 1.5 µM; in experiment [14] it was 0.33 ± 0.07 µM. Also, the dissociation constant Kd in experiment [15] was found to be 4.85 ± 0.25 µM; in experiment [16], 5.92 ± 0.75 µM; in experiment [17], 2.39 ± 0.3 µM; in experiment [4], 0.59 ± 0.06 µM. Besides, the dH is -4.9 kcal/mol in [9]; -2.61 kcal/mol in [10]; -2.54 kcal/mol in [11]; -4.49 kcal/mol in experiment [12]; -1.8 kcal/mol in [13]; -5.78 kcal/mol in [14]. The dH in experiment [15] was -1.53 kcal/mol; in experiment [16], -2.66 kcal/mol; in experiment [17], -2.78 kcal/mol; in experiment [4], -3.51 kcal/mol. Also, the “stoichiometry N” value in [9] stood at 1.08; in experiment [10], 1.03; in [11], 1.03; in experiment [12], 0.93; in [13], 1.04; in [14], 1.17. Moreover, the “stoichiometry N” value turned out to be 1.04 in [15], 1.03 in experiment [16], 1.16 in experiment [17] and 1 in [4].

B3: FUNDC1 LIR peptide 10-25 phosphorylated at Ser13 (peptide)
peptide: DYE[pS]DDDSYEVLDLTE
notes: also called FUNDC1 pS13; pS13 peptide; source: synthetic peptide (GL Biochem, Shanghai)
Consider B3, for which the Kd is 34 ± 3.46 µM in experiment [18]; 4.63 ± 0.13 µM in experiment [4]; 17.1 ± 1.05 µM in experiment [19]; 11.2 ± 0.73 µM in experiment [5]; 28.5 ± 2.97 µM in experiment [6]. Also, the dH was -2.83 kcal/mol in experiment [18]; -3.81 kcal/mol in [4]; -2.39 kcal/mol in experiment [19]; -4.1 kcal/mol in experiment [5]; -3.67 kcal/mol in experiment [6]. Further, the “stoichiometry N” value in experiment [18] was determined as 1.03; in [4] it was 1.13; in experiment [19] it was 1.04; in experiment [5] it was 1.11; in experiment [6], 1.02.

B4: FUNDC1 LIR peptide 10-25 phosphorylated at Tyr18 (peptide)
peptide: DYESDDDS[pY]EVLDLTE
notes: also called FUNDC1 pY18; pY18 peptide; source: synthetic peptide (GL Biochem, Shanghai)
For the molecule B4, in experiment [4], the equilibrium dissociation constant (Kd) came to 16.8 ± 2.1 µM, the dH was -0.93 kcal/mol and the “stoichiometry N” value stood at 1.16.

The values above are taken from PMC5233613, “Structural insights into the recognition of phosphorylated FUNDC1 by LC3B in mitophagy” (Protein & Cell, 2016).
